Measured values: IntAct's records for PubMed 18441008

B1: Peroxisome proliferator-activated receptor gamma coactivator 1-alpha (Homo sapiens), Q9UBK2 (parent)
chain: MAWDMCNQDSESVWSDIECAALVGEDQPLCPDLPELDLSELDVNDLDTDSFLGGLKWCSDQSEIISNQYNNEPSNIFEKIDEENEANLLAVLTETLDSLPVDEDGLPSFDALTDGDVTTDNEASPSSMPDGTPPPQEAEEPSLLKKLLLAPANTQLSYNECSGLSTQNHANHNHRIRTNPAIVKTENSWSNKAKSICQQQKPQRRPCSELLKYLTTNDDPPHTKPTENRNSSRDKCTSKKKSHTQSQSQHLQAKPTTLSLPLTPESPNDPKGSPFENKTIERTLSVELSGTAGLTPPTTPPHKANQDNPFRASPKLKSSCKTVVPPPSKKPRYSESSGTQGNNSTKKGPEQSELYAQLSKSSVLTGGHEERKTKRPSLRLFGDHDYCQSINSKTEILINISQELQDSRQLENKDVSSDWQGQICSSTDSDQCYLRETLEASKQVSPCSTRKQLQDQEIRAELNKHFGHPSQAVFDDEADKTGELRDSDFSNEQFSKLPMFINSGLAMDGLFDDSEDESDKLSYPWDGTQSYSLFNVSPSCSSFNSPCRDSVSPPKSLFSQRPQRMRSRSRSFSRHRSCSRSPYSRSRSRSPGSRSSSRSCYYYESSHYRHRTHRNSPLYVRSRSRSPYSRRPRYDSYEEYQHERLKREEYRREYEKRESERAKQRERQRQKAIEERRVIYVGKIRPDTTRTELRDRFEVFGEIEECTVNLRDDGDSYGFITYRYTCDAFAALENGYTLRRSNETDFELYFCGRKQFFKSNYADLDSNSDDFDPASTKSKYDSLDFDSLLKEAQRSLRR
partner: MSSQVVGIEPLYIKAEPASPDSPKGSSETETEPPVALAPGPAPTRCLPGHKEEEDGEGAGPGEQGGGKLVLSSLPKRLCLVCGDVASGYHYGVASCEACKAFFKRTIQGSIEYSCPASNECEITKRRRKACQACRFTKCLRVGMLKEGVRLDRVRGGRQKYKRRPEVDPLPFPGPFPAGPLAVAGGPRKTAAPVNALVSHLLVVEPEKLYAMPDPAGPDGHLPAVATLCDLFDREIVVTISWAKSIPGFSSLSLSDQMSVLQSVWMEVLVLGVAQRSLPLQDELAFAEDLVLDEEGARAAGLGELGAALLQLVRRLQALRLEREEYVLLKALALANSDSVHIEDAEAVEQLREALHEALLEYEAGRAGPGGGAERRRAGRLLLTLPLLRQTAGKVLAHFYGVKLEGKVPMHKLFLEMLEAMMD
B2: Steroid hormone receptor ERR1 (Homo sapiens), P11474 (parent)
chain: B1 partner
partner: B1 chain
B3: Estrogen receptor (Homo sapiens), P03372 (parent)
chain: MTMTLHTKASGMALLHQIQGNELEPLNRPQLKIPLERPLGEVYLDSSKPAVYNYPEGAAYEFNAAAAANAQVYGQTGLPYGPGSEAAAFGSNGLGGFPPLNSVSPSPLMLLHPPPQLSPFLQPHGQQVPYYLENEPSGYTVREAGPPAFYRPNSDNRRQGGRERLASTNDKGSMAMESAKETRYCAVCNDYASGYHYGVWSCEGCKAFFKRSIQGHNDYMCPATNQCTIDKNRRKSCQACRLRKCYEVGMMKGGIRKDRRGGRMLKHKRQRDDGEGRGEVGSAGDMRAANLWPSPLMIKRSKKNSLALSLTADQMVSALLDAEPPILYSEYDPTRPFSEASMMGLLTNLADRELVHMINWAKRVPGFVDLTLHDQVHLLECAWLEILMIGLVWRSMEHPGKLLFAPNLLLDRNQGKCVEGMVEIFDMLLATSSRFRMMNLQGEEFVCLKSIILLNSGVYTFLSSTLKSLEEKDHIHRVLDKITDTLIHLMAKAGLTLQQQHQRLAQLLLILSHIRHMSNKGMEHLYSMKCKNVVPLYDLLLEMLDAHRLHAPTSRGGASVEETDQSHLATAGSTSSHSLQKYYITGEAEGFPATV
partner: B1 chain

Variants of: B1
Settings: with err1_human ESRRA
With L144A the “effect of a mutation on the interaction” value was “decreasing interaction strength”.
In the case of L144A;L210A, the “effect of a mutation on the interaction” value is reported as “disrupting interaction strength”.
L210A was tested, and the “effect of a mutation on the interaction” value was “decreasing interaction strength”.

Variants of: B1
Settings: with err1_human ESRRA
Remark: another data set of the same source
With L144A the “effect of a mutation on the interaction” value was “disrupting interaction strength”.

Variants of: B1
Settings: with err1_human ESRRA
Remark: another data set of the same source
L210A was tested, and the “effect of a mutation on the interaction” value was “disrupting interaction strength”.
With C207E the “effect of a mutation on the interaction” value was “disrupting interaction strength”.
For C207S, the “effect of a mutation on the interaction” value was “disrupting interaction strength”.
L211A was tested, and the “effect of a mutation on the interaction” value was “decreasing interaction strength”.
With Y213A the “effect of a mutation on the interaction” value was “disrupting interaction strength”.

Variants of: B1
Settings: with err1_human ESRRA
Remark: another data set of the same source
For P202A;Q203A, the “effect of a mutation on the interaction” value was “with no effect”.
R204A;R205A was tested, and the “effect of a mutation on the interaction” value was “disrupting interaction strength”.

Variants of: B1
Settings: with err1_human ESRRA
Remark: another data set of the same source
With K212R the “effect of a mutation on the interaction” value was “decreasing interaction strength”.

Variants of: B2
Settings: with prgc1_human PPARGC1A
M258V;Q262E was tested, and the “effect of a mutation on the interaction” value was “disrupting interaction strength”.
For H341A, the “effect of a mutation on the interaction” value was “decreasing interaction strength”.
In the case of D423A, the “effect of a mutation on the interaction” value is reported as “decreasing interaction strength”.

Variants of: B2
Settings: with prgc1_human PPARGC1A
Remark: another data set of the same source
D423A was tested, and the “effect of a mutation on the interaction” value was “with no effect”.

Variants of: B2
Settings: with prgc1_human PPARGC1A
Remark: another data set of the same source
For S259H, the “effect of a mutation on the interaction” value was “decreasing interaction strength”.
R315A was tested, and the “effect of a mutation on the interaction” value was “disrupting interaction strength”.
With D338A the “effect of a mutation on the interaction” value was “disrupting interaction strength”.

Variants of: B2
Settings: with prgc1_human PPARGC1A
Remark: another data set of the same source
In the case of E343A, the “effect of a mutation on the interaction” value is reported as “decreasing interaction strength”.

Variants of: B2
Settings: with prgc1_human PPARGC1A
Remark: another data set of the same source
For E343A, the “effect of a mutation on the interaction” value was “with no effect”.

Variants of: B3
Settings: with prgc1_human PPARGC1A
In the case of V376M;E380Q, the “effect of a mutation on the interaction” value is reported as “increasing interaction strength”.
